Results from publication PMC9482650, “Quantitative fragmentomics allow affinity mapping of interactomes” (Nature Communications, 2022).
One block for each binder: values may come before it.

Tests used:
Assay in all cases: holdup assay
Parameters in all cases: key: below the threshold = too weak to quantify, mostly under pKd 3.1 to 4
Settings in all cases: plain residues with an end cap or a label only (N-terminal biotin on a linker: ado-ado)
PDLIM1, O00151 = biological target: PDLIM1, O00151
MPP6, Q9NZW5 = biological target: T1, MPP6, Q9NZW5
T1 sequence (Q9NZW5 125-219, limits assumed, looked up): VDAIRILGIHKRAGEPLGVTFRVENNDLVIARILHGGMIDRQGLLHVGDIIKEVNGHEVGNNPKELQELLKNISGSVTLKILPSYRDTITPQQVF

TJP3_3, O95049 = biological target: T2, TJP3_3, O95049
T2 sequence (O95049 375-456, limits assumed, looked up): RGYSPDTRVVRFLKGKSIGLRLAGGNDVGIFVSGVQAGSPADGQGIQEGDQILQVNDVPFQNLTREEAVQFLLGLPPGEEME

GORASP1, Q9BQQ3 = biological target: GORASP1, Q9BQQ3
AHNAK1, Q09666 = biological target: AHNAK1, Q09666
Inadl_2, Q8NI35 = biological target: Inadl_2, Q8NI35
MAGI1_2, Q96QZ7 = biological target: MAGI1_2, Q96QZ7
APBA2_1, Q99767 = biological target: T3, APBA2_1, Q99767
T3 sequence (Q99767 563-664, limits assumed, looked up): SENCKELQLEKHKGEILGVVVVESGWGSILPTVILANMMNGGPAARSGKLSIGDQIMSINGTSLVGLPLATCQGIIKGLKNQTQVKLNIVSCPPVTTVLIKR

NHERF3_1, Q5T2W1 = biological target: T4, NHERF3_1, Q5T2W1
T4 sequence (Q5T2W1 4-100, limits assumed, looked up): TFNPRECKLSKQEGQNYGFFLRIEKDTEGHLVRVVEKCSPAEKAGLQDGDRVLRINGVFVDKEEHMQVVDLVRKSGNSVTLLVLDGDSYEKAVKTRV

SNTA1, Q13424 = biological target: T5, SNTA1, Q13424
T5 sequence (Q13424 82-180, limits assumed, looked up): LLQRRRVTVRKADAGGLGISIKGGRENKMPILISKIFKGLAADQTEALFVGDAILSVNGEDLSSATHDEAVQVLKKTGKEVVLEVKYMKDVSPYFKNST

NHERF3_3, Q5T2W1 = biological target: T6, NHERF3_3, Q5T2W1
T6 sequence (Q5T2W1 238-333, limits assumed, looked up): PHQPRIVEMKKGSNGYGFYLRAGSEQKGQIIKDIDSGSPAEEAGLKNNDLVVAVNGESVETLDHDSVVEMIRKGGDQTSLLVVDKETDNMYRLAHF

LNX1_2, Q8TBB1 = biological target: LNX1_2, Q8TBB1
NHERF4_1, Q86UT5-2 = biological target: NHERF4_1, Q86UT5-2
NOS1, P29475 = biological target: NOS1, P29475
HTRA3, P83110 = biological target: T7, HTRA3, P83110
T7 sequence (P83110 354-453, limits assumed, looked up): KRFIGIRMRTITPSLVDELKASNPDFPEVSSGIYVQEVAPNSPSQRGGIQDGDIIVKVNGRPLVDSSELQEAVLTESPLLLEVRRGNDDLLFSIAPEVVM

MPDZ_10, O75970 = biological target: T8, MPDZ_10, O75970
T8 sequence (O75970 1624-1722, limits assumed, looked up): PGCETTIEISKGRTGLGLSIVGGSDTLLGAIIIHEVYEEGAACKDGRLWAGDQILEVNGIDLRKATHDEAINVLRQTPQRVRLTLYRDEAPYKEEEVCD

DLG3_1, Q92796 = biological target: T9, DLG3_1, Q92796
T9 sequence (Q92796 125-227, limits assumed, looked up): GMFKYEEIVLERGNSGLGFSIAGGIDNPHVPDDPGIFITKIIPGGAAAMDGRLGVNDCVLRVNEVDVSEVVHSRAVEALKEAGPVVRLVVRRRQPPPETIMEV

Inadl_9, Q8NI35 = biological target: Inadl_9, Q8NI35
PICK1, Q9NRD5 = biological target: PICK1, Q9NRD5
RAPGEF6, Q8TEU7 = biological target: T10, RAPGEF6, Q8TEU7
T10 sequence (Q8TEU7 525-625, limits assumed, looked up): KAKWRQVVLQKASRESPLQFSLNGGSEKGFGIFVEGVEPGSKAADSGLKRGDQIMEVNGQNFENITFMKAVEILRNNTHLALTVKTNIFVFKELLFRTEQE

DFNB31_3, Q9P202 = biological target: T11, DFNB31_3, Q9P202
T11 sequence (Q9P202 811-907, limits assumed, looked up): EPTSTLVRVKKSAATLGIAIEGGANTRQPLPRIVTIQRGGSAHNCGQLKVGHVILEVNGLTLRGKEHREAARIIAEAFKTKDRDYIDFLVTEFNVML

LDB3, O75112 = biological target: LDB3, O75112
DLG1_3, Q12959 = biological target: DLG1_3, Q12959
LNX2_2, Q8N448 = biological target: T12, LNX2_2, Q8N448
T12 sequence (Q8N448 334-432, limits assumed, looked up): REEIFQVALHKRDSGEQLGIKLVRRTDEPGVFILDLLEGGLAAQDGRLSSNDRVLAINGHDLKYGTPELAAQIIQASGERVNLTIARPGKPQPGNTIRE

DLG1_2, Q12959 = biological target: DLG1_2, Q12959
SCRIB_3, Q14160 = biological target: SCRIB_3, Q14160
Chain of SCRIB_3, Q14160 (Q14160 999-1103): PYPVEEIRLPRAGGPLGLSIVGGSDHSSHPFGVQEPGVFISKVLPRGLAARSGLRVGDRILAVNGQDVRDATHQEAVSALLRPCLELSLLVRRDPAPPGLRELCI

Chain of NOS1, P29475 (P29475 9-101): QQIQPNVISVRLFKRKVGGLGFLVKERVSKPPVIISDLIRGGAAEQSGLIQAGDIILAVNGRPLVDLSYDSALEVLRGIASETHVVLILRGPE
Chain of LDB3, O75112 (O75112 1-94): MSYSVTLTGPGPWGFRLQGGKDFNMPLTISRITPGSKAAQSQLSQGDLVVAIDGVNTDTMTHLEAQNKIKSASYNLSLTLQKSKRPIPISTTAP
Chain of DLG1_3, Q12959 (Q12959 457-571): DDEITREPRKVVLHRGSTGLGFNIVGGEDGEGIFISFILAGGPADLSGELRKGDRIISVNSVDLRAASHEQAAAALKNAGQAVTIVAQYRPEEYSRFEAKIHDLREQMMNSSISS
Chain of MAGI1_2, Q96QZ7 (Q96QZ7 456-580): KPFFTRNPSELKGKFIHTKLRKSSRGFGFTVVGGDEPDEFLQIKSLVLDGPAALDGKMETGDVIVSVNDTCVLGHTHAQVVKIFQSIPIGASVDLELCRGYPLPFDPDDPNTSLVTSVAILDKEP
Chain of NHERF4_1, Q86UT5-2 (Q86UT5 other isoform, or with tags, fused parts or gaps): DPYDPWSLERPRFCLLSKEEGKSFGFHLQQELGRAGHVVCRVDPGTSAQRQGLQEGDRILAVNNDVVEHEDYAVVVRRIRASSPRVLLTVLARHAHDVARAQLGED
Chain of DLG1_2, Q12959 (Q12959 314-412): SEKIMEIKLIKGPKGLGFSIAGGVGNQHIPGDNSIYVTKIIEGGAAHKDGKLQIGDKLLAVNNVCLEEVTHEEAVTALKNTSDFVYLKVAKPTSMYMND
Chain of PDLIM1, O00151 (O00151 1-87): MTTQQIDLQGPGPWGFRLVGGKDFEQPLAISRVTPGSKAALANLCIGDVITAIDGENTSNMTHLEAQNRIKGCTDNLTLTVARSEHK
Chain of LNX1_2, Q8TBB1 (Q8TBB1 371-470): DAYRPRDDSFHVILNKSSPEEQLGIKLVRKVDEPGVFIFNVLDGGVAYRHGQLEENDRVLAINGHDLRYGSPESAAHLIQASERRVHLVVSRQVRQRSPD
Chain of PICK1, Q9NRD5 (Q9NRD5 17-115): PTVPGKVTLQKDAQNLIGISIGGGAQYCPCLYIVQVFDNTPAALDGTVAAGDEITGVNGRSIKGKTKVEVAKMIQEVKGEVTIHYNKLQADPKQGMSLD
Chain of GORASP1, Q9BQQ3 (Q9BQQ3 1-208): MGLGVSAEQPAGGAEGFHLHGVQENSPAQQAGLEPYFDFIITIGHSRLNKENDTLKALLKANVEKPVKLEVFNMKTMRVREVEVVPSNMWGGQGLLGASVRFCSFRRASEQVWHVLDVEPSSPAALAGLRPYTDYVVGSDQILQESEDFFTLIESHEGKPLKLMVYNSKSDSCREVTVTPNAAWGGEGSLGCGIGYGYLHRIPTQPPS
Chain of Inadl_9, Q8NI35 (Q8NI35 1530-1615): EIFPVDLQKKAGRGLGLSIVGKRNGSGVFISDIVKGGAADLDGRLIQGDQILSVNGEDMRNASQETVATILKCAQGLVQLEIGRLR
Chain of AHNAK1, Q09666 (Q09666 4-100): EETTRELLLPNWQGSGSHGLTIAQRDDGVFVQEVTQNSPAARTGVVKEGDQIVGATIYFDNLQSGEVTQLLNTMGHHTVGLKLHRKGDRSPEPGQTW
Chain of Inadl_2, Q8NI35 (Q8NI35 238-335): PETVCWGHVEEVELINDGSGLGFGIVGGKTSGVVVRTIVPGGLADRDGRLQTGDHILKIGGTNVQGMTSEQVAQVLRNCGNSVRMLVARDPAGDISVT

B1: JUP, P14923 (peptide)
chain: PYPTADHMLA
pKd (PDLIM1, O00151): below the threshold | pKd (MPP6, Q9NZW5): below the threshold | pKd (TJP3_3, O95049): below the threshold | pKd (GORASP1, Q9BQQ3): below the threshold | pKd (AHNAK1, Q09666): below the threshold | pKd (Inadl_2, Q8NI35): below the threshold | pKd (MAGI1_2, Q96QZ7): below the threshold | pKd (APBA2_1, Q99767): below the threshold | pKd (NHERF3_1, Q5T2W1): below the threshold | pKd (SNTA1, Q13424): below the threshold | pKd (NHERF3_3, Q5T2W1): below the threshold | pKd (LNX1_2, Q8TBB1): below the threshold | pKd (NHERF4_1, Q86UT5-2): below the threshold | pKd (NOS1, P29475): below the threshold | pKd (HTRA3, P83110): below the threshold | pKd (MPDZ_10, O75970): below the threshold | pKd (DLG3_1, Q92796): below the threshold | pKd (Inadl_9, Q8NI35): below the threshold | pKd (PICK1, Q9NRD5): below the threshold | pKd (RAPGEF6, Q8TEU7): below the threshold | pKd (DFNB31_3, Q9P202): 3.83 | pKd (LDB3, O75112): below the threshold | pKd (DLG1_3, Q12959): below the threshold | pKd (LNX2_2, Q8N448): below the threshold | pKd (DLG1_2, Q12959): 3.6 | pKd (SCRIB_3, Q14160): below the threshold

B3: ADGRA3, Q8IWK6 (peptide)
chain: TGLWKHETTV
pKd (PDLIM1, O00151): below the threshold | pKd (MPP6, Q9NZW5): below the threshold | pKd (TJP3_3, O95049): below the threshold | pKd (GORASP1, Q9BQQ3): below the threshold | pKd (AHNAK1, Q09666): below the threshold | pKd (Inadl_2, Q8NI35): below the threshold | pKd (MAGI1_2, Q96QZ7): 4.91 | pKd (APBA2_1, Q99767): below the threshold | pKd (NHERF3_1, Q5T2W1): 3.63 | pKd (SNTA1, Q13424): 4.58 | pKd (NHERF3_3, Q5T2W1): below the threshold | pKd (LNX1_2, Q8TBB1): 3.8 | pKd (NHERF4_1, Q86UT5-2): below the threshold | pKd (NOS1, P29475): below the threshold | pKd (HTRA3, P83110): below the threshold | pKd (MPDZ_10, O75970): below the threshold | pKd (DLG3_1, Q92796): 4.69 | pKd (Inadl_9, Q8NI35): 3.74 | pKd (PICK1, Q9NRD5): 4.16 | pKd (RAPGEF6, Q8TEU7): below the threshold | pKd (DFNB31_3, Q9P202): 3.85 | pKd (LDB3, O75112): below the threshold | pKd (DLG1_3, Q12959): 4.78 | pKd (LNX2_2, Q8N448): 4.93 | pKd (DLG1_2, Q12959): 5.48 | pKd (SCRIB_3, Q14160): 4.88

More lines, now with the values ahead:

pKd (PDLIM1, O00151): 3.77 | pKd (MPP6, Q9NZW5): below the threshold | pKd (TJP3_3, O95049): below the threshold | pKd (GORASP1, Q9BQQ3): below the threshold | pKd (AHNAK1, Q09666): below the threshold | pKd (Inadl_2, Q8NI35): below the threshold | pKd (MAGI1_2, Q96QZ7): below the threshold | pKd (APBA2_1, Q99767): below the threshold | pKd (NHERF3_1, Q5T2W1): below the threshold | pKd (SNTA1, Q13424): 4.33 | pKd (NHERF3_3, Q5T2W1): below the threshold | pKd (LNX1_2, Q8TBB1): below the threshold | pKd (NHERF4_1, Q86UT5-2): 4 | pKd (NOS1, P29475): below the threshold | pKd (HTRA3, P83110): below the threshold | pKd (MPDZ_10, O75970): below the threshold | pKd (DLG3_1, Q92796): below the threshold | pKd (Inadl_9, Q8NI35): below the threshold | pKd (PICK1, Q9NRD5): below the threshold | pKd (RAPGEF6, Q8TEU7): below the threshold | pKd (DFNB31_3, Q9P202): 3.94 | pKd (LDB3, O75112): below the threshold | pKd (DLG1_3, Q12959): below the threshold | pKd (LNX2_2, Q8N448): below the threshold | pKd (DLG1_2, Q12959): 4.45 | pKd (SCRIB_3, Q14160): 4.94
B2: PLXNB1, O43157 (peptide)
chain: AAVENKVTDL

pKd (PDLIM1, O00151): below the threshold | pKd (MPP6, Q9NZW5): below the threshold | pKd (TJP3_3, O95049): below the threshold | pKd (GORASP1, Q9BQQ3): below the threshold | pKd (AHNAK1, Q09666): below the threshold | pKd (Inadl_2, Q8NI35): below the threshold | pKd (MAGI1_2, Q96QZ7): below the threshold | pKd (APBA2_1, Q99767): below the threshold | pKd (NHERF3_1, Q5T2W1): below the threshold | pKd (SNTA1, Q13424): below the threshold | pKd (NHERF3_3, Q5T2W1): below the threshold | pKd (LNX1_2, Q8TBB1): below the threshold | pKd (NHERF4_1, Q86UT5-2): 3.56 | pKd (NOS1, P29475): below the threshold | pKd (HTRA3, P83110): below the threshold | pKd (MPDZ_10, O75970): below the threshold | pKd (DLG3_1, Q92796): below the threshold | pKd (Inadl_9, Q8NI35): below the threshold | pKd (PICK1, Q9NRD5): 3.91 | pKd (RAPGEF6, Q8TEU7): below the threshold | pKd (DFNB31_3, Q9P202): below the threshold | pKd (LDB3, O75112): below the threshold | pKd (DLG1_3, Q12959): below the threshold | pKd (LNX2_2, Q8N448): 3.49 | pKd (DLG1_2, Q12959): 3.52 | pKd (SCRIB_3, Q14160): below the threshold
B4: PRKACA, P17612 (peptide)
chain: EKCGKEFSEF

pKd (PDLIM1, O00151): below the threshold | pKd (MPP6, Q9NZW5): below the threshold | pKd (TJP3_3, O95049): below the threshold | pKd (GORASP1, Q9BQQ3): 3.51 | pKd (AHNAK1, Q09666): below the threshold | pKd (Inadl_2, Q8NI35): below the threshold | pKd (MAGI1_2, Q96QZ7): below the threshold | pKd (APBA2_1, Q99767): below the threshold | pKd (NHERF3_1, Q5T2W1): 3.86 | pKd (SNTA1, Q13424): below the threshold | pKd (NHERF3_3, Q5T2W1): below the threshold | pKd (LNX1_2, Q8TBB1): 3.5 | pKd (NHERF4_1, Q86UT5-2): 3.57 | pKd (NOS1, P29475): 3.83 | pKd (HTRA3, P83110): 4.31 | pKd (MPDZ_10, O75970): below the threshold | pKd (DLG3_1, Q92796): below the threshold | pKd (Inadl_9, Q8NI35): below the threshold | pKd (PICK1, Q9NRD5): below the threshold | pKd (RAPGEF6, Q8TEU7): 3.54 | pKd (DFNB31_3, Q9P202): 3.91 | pKd (LDB3, O75112): below the threshold | pKd (DLG1_3, Q12959): below the threshold | pKd (LNX2_2, Q8N448): below the threshold | pKd (DLG1_2, Q12959): 3.49 | pKd (SCRIB_3, Q14160): below the threshold
B5: SDC2, P34741 (peptide)
chain: QKAPTKEFYA
